Source: US20110229922

Key:
[1] = tested on: MR121 peptide C QTLEFLK W
[2] = tested on: T1, MR121 peptide C QELEFLKI W
T1 sequence: QELEFLKI

[3] = tested on: T2, MR121 peptide C QTLEFLKIP W
T2 sequence: QTLEFLKIP

[4] = tested on: T3, TMEM 27 A FRET peptide RINNAFFLND
T3 sequence: RINNAFFLND

[5] = tested on: dabsyl-QTLEFLKIPS-LucY (TMEM27 FRET peptide)
[6] = tested on: dabsyl-NSLEFLGIQP-lucifer yellow (ACE2 FRET peptide)
[7] = tested on: T4, MR121 peptide C QTLEFLKIPS W
T4 sequence: QTLEFLKIPS

[8] = tested on: T5, APP SW FRET peptide SEVNLDAEFR
T5 sequence: SEVNLDAEFR

[9] = tested on: T6, MR121 peptide C QTLEFLKI W
T6 sequence: QTLEFLKI

[10] = tested on: T7, Amylin FRET peptide GSNTYGKRNA
T7 sequence: GSNTYGKRNA

[11] = tested on: MR121 peptide C TLEFLKI W
[12] = tested on: T8, APP WT FRET peptide SEVKMDAEFR
T8 sequence: SEVKMDAEFR

[13] = target: dabsyl-…-LucY (TMEM27 FRET peptide)

B1: BACE2 enzyme ectodomain (enzyme)
chain: AAPELAPAPFTLPLRVAAATNRVVAPTPGPGTPAERHADGLALALEPALASPAGAANFLAMVDNLQGDSGRGYYLEMLIGTPPQKLQILVDTGSSNFAVAGTPHSYIDTYFDTERSSTYRSKGFDVTVKYTQGSWTGFVGEDLVTIPKGFNTSFLVNIATIFESENFFLPGIKWNGILGLAYATLAKPSSSLETFFDSLVTQANIPNVFSMQMCGAGLPVAGSGTNGGSLVLGGIEPSLYKGDIWYTPIKEEWYYQIEILKLEIGGQSLNLDCREYNADKAIVDSGTTLLRLPQKVFDAVVEAVARASLIPEFSDGFWTGSQLACWTNSETPWSYFPKISIYLRDENSSRSFRITILPQLYIQPMMGAGLNYECYRFGISPSTNALVIGATVMEGFYVIFDRAQKRVGFAASPCAEIAGAAVSEISGPFSTEDVASNCVPAQSLSE
modifications: N-terminal Met
- Relative activity [1]: 62
- Relative activity [2]: 100
- Relative activity [3]: 75
- FRET peptide cleavage efficiency [4]: cleaved less efficiently
- Relative activity (MR121 peptide C QTLEF W): 21
- FRET peptide cleavage activity [5]: BACE2 had a high activity against this sequence
- Relative activity (MR121 peptide C LEFLKI W): 24
- FRET peptide cleavage efficiency [6]: cleaved by BACE2 with an efficiency greater than that of the TMEM27 substrate
- Relative activity [7]: 91
- FRET peptide cleavage efficiency [8]: cleaved less efficiently
- Relative activity [9]: 96
- FRET peptide cleavage efficiency [10]: cleaved less efficiently
- Relative activity (MR121 peptide C QTLEFL W): 32
- Relative activity [11]: 28
- FRET peptide cleavage efficiency [12]: cleaved less efficiently

B2: BACE1 (protein)
chain: TQHGIRLPLRSGLGGAPLGLRLPRETDEEPEEPGRRGSFVEMVDNLRGKSGQGYYVEMTVGSPPQTLNILVDTGSSNFAVGAAPHPFLHRYYQRQLSSTYRDLRKGVYVPYTQGKWEGELGTDLVSIPHGPNVTVRANIAAITESDKFFINGSNWEGILGLAYAEIARPDDSLEPFFDSLVKQTHVPNLFSLQLCGAGFPLNQSEVLASVGGSMIIGGIDHSLYTGSLWYTPIRREWYYEVIIVRVEINGQDLKMDCKEYNYDKSIVDSGTTNLRLPKKVFEAAVKSIKAASSTEKFPDGFWLGEQLVCWQAGTTPWNIFPVISLYLMGEVTNQSFRITILPQQYLRPVEDVATSQDDCYKFAISQSSTGTVMGAVIMEGFYVVFDRARKRIGFAVSACHVHDEFRTAAVEGPFVTLDMEDCGYNIPQTDESTLMTIAY
- FRET peptide cleavage activity [13]: BACE1 had insignificant activity against this peptide
